From publication PMC5014123 (Nature communications, 2015)
“And” between values parts separate entries of the source, which are not always exact repeats. Equal entries are not always repeated. Non-standard residues stand in square brackets, D forms with d.

Tests used:
native gel or EMSA = molecular target: the molecule itself; assay: native gel or EMSA
MMP-2 = MMP-2 (UniProt P08253 30-660); assay: cell-based or functional assay
MMP-14 = MMP-14 (UniProt P50281 112-541); assay: cell-based or functional assay

Sequence of MMP-2 (P08253 30-660): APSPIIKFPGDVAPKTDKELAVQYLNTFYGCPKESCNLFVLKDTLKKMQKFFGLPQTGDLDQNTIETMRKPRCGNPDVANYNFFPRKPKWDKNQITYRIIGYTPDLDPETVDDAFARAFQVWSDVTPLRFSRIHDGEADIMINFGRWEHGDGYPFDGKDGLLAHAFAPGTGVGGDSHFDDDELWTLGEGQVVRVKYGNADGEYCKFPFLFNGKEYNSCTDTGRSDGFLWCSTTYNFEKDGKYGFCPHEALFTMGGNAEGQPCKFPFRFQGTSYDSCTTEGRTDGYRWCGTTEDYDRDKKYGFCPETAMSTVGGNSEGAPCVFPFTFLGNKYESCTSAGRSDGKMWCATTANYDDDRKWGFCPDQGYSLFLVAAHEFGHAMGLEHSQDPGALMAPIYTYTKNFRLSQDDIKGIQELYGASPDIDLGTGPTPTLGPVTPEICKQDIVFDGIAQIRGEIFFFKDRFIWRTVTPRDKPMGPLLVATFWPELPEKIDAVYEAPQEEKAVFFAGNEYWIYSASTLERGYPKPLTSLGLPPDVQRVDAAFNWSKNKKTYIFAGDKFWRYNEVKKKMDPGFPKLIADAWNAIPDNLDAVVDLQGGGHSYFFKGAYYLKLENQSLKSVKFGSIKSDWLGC

Binder | stoichiometry N (native gel or EMSA) | IC50 of inhibition of catalytic activity (substrate Mca-PLGL-Dpa-AR-NH2) (MMP-2) | IC50 of inhibition of catalytic activity (substrate Mca-KPLGL-Dpa-AR-NH2) (MMP-14)
Inactive recombinant human ADAM8 (Met1-Pro497) (domain or fragment, UniProt P78325-1 17-497, looked up) IAPSRPWALMEQYEVVLPWRLPGPRVRRALPSHLGLHPERVSYVLGATGHNFTLHLRKNRDLLGSGYTETYTAANGSEVTEQPRGQDHCFYQGHVEGYPDSAASLSTCAGLRGFFQVGSDLHLIEPLDEGGEGGRHAVYQAEHLLQTAGTCGVSDDSLGSLLGPRTAAVFRPRPGDSLPSRETRYVELYVVVDNAEFQMLGSEAAVRHRVLEVVNHVDKLYQKLNFRVVLVGLEIWNSQDRFHVSPDPSVTLENLLTWQARQRTRRHLHDNVQLITGVDFTGTTVGFARVSAMCSHSSGAVNQDHSKNPVGVACTMAHEMGHNLGMDHDENVQGCRCQERFEAGRCIMAGSIGSSFPRMFSDCSQAYLESFLERPQSVCLANAPDLSHLVGGPVCGNLFVERGEQCDCGPPEDCRNRCCNSTTCQLAEGAQCAHGTCCQECKVKPAGELCRPKKDMCDLEEFCDGRHPECPEDAFQENGTP | 2 and 3 | – | –
cyclo(RL[dS]KDK) (SMILES CC(C)C[C@@H]1NC(=O)[C@H](CCCNC(=N)N)NC(=O)[C@H](CCCCN)NC(=O)[C@H](CC(=O)O)NC(=O)[C@H](CCCCN)NC(=O)[C@@H](CO)NC1=O) [cyclo-RLsKDK (BK-1361)] | – | > 10 µM | > 10 µM
